The source of these data is article PMC3827151, “Methionine Mutations of Outer Membrane Protein X Influence Structural Stability and Beta-Barrel Unfolding” (PLoS ONE, 2013).

Positions count from the first letter of the chain named. Numbers in names are those of the source.

This series concerns the molecule itself. The experiment in a line: SDS-PAGE of unboiled samples (gel mobility shift); protein in 8 M urea diluted 20-fold into LDAO, DPC, 60PC or DMPC in 20 mM Tris-HCl pH 9.5, slow folding at 40°C for 3 h; samples not centrifuged; bands of folded and unfolded monomer and dimer.

B1: Outer membrane protein X H100N (OmpX^HN) (natural protein, E. coli, UniProt P0A917 24-171, looked up)
chain: ATSTVTGGYAQSDAQGQMNKMGGFNLKYRYEEDNSPLGVIGSFTYTEKSRTASSGDYNKNQYYGITAGPAYRINDWASIYGVVGVGYGKFQTTEYPTYKNDTSDYGFSYGAGLQFNPMENVALDFSYEQSRIRSVDVGTWIAGVGYRF
notes: also called OmpX H100N
Regarding B1, the binding result is reported as “binds”.

B2: Outer membrane protein X H100N:M18L:M21L:M118L quadruple mutant (OmpX^M) (natural protein, E. coli, UniProt P0A917 24-171, looked up)
chain: B1 chain with M18L, M21L, M118L
notes: the 'initiator' Met is kept; PDB 1QJ8 is the parent OmpX^HN; also called Met-less construct
In the case of B2, the binding result was “binds”.
